The source of these data is patent publication US20200024330A1.

Common to all, as to experiment: cell-based or functional assay
Experiment [1] deals with HIV-1 92TH021 envelope protein (Env) on pseudovirus (HIV-1).
In experiment [2] the target is HIV-1 93IN905 Env (HIV-1).
Experiment [3] addresses HIV-1 94KE105 envelope glycoprotein (Env) (HIV-1).
For experiment [4], the target named is HIV-1 Env of isolate 92TH021 (HIV-1).
Experiment [5] addresses HIV-1 Env of isolate 92UG024 (clade D) (HIV-1).
The target of experiment [6] is HIV-1 Env of isolate MGRM-D-005 (HIV-1).
Experiment [7] concerns the target HIV-1 Env of isolate MGRM-D-008 (HIV-1).
In experiment [8] the target is HIV-1 Env of isolate MGRM-D-014 (HIV-1).
The target in experiment [9] is HIV-1 Env of isolate MGRM-G-009 (subtype G) (HIV-1).
Experiment [10] concerns the target HIV-1 Env of isolate MGRM-G-014 (clade G pseudovirus) (HIV-1).
Experiment [11] deals with HIV-1 Env of isolate MGRM-G-027 (clade G pseudovirus) (HIV-1).
Experiment [12] deals with HIV-1 Env of pseudovirus JRCSF, clade B (HIV-1) (UniProt P20871).
For experiment [13], the target named is HIV-1 LAVI_C3 Env (HIV-1).
For experiment [14], the target named is HIV-1 MGRM-C-015 Env (HIV-1).
In experiment [15] the target is HIV-1 MGRM-D-018 envelope glycoprotein (Env) on pseudovirus (HIV-1).
For experiment [16], the target named is HIV-1 Env of isolate 92UG024 (subtype D) (HIV-1).
Experiment [17] has as its target HIV-1 Env of isolate 98IN022 (pseudovirus) (HIV-1 isolate 98IN022, subtype C).
In experiment [18] the target is HIV-1 Env of isolate MG RM-D-004 (subtype D) (HIV-1).
The target in experiment [19] is HIV-1 Env of isolate MG RM-D-005 (subtype D) (HIV-1).
The target of experiment [20] is HIV-1 Env of isolate MG RM-D-014 (subtype D) (HIV-1).
The target of experiment [21] is HIV-1 Env of isolate MG RM-D-021 (subtype D) (HIV-1).
The target of experiment [22] is HIV-1 Env of isolate MGRM-C-014 (pseudovirus) (HIV-1 isolate MGRM-C-014, subtype C).
Experiment [23] concerns the target HIV-1 Env of isolate MGRM-C-020 (pseudovirus) (HIV-1 isolate MGRM-C-020, subtype C).
Experiment [24] concerns the target HIV-1 Env of isolate MGRM-F1-020 (HIV-1).
The target of experiment [25] is HIV-1 MGRM-Chronic-B-004 Env (pseudovirus) (HIV-1).
For experiment [26], the target named is HIV-1 MGRM-Chronic-B-017 Env (pseudovirus) (HIV-1).
Experiment [27] addresses HIV-1 JR-CSF Env G471A (HIV-1 (isolate JR-CSF)) (UniProt P20871).
Experiment [28] concerns the target HIV-1 JR-CSF Env N134A (HIV-1 (isolate JR-CSF)) (UniProt P20871).
Experiment [29] has as its target HIV-1 JR-CSF Env V127A (HIV-1 (isolate JR-CSF)) (UniProt P20871).
Experiment [30] concerns the target HIV-1 Env of isolate 92UG037 (HIV-1).
The target in experiment [31] is HIV-1 Env of isolate TRJ04551.58 (HIV-1).
Experiment [32] has as its target HIV-1 Env of isolate TRO.11 (HIV-1).
In experiment [33] the target is HIV-1 Env of isolate VLGCB3 (HIV-1).

Regarding 1496_C09 (PG9) (TCN-109) (antibody), the neutralization IC50 in [1] came out at 0.111 µg/mL; in experiment [9], 10.7 µg/mL. Moreover, the IC50 – broadly, the point on the concentration scale where inhibition reaches its midpoint – in [2] amounted to 0.03 µg/mL; in [13], 1.45 µg/mL; in experiment [14], 0.5 µg/mL. The IC50 (µg/ml), pseudovirus neutralization in experiment [3] was determined as 29.6 µg/mL; in experiment [4] it was 0.09 µg/mL; in experiment [5], 1.91 µg/mL; in experiment [10], 6.32 µg/mL; in experiment [11], 0.01 µg/mL; in experiment [12] it was 0.003 µg/mL. Further, the IC50 (µg/mL), pseudovirus neutralization turned out to be 0.059 µg/mL in [4], 1.8 µg/mL in experiment [6], 11.5 µg/mL in [7] and 0.023 µg/mL in experiment [8]. This substance displayed an IC50 (ug/ml), neutralizing activity in [15] of 2.04 µg/mL. In experiment [15], this substance had an IC50 neutralization of 0.0444 µg/mL. Besides, the IC80, neutralization in experiment [15] came out at 0.18 µg/mL. In [15], the IC90, neutralization was 0.43 µg/mL. For the same substance, the IC95, neutralization in experiment [15] was determined as 1.05 µg/mL.
For 4838_L06 (PGT-121) (antibody), the IC50 (µg/mL), pseudovirus neutralization is above 50 µg/mL in experiment [16]; above 50 µg/mL in experiment [18]; above 50 µg/mL in [19]; 0.009 µg/mL in experiment [20]; 5.33 µg/mL in experiment [21]. The IC50 (µg/mL) neutralization in experiment [17] was 0.007 µg/mL; in experiment [22], 26.9 µg/mL; in experiment [23] it was above 50 µg/mL. The substance also yielded an IC50 in experiment [24] of 0.167 µg/mL. Moreover, the IC50, pseudovirus neutralization in experiment [25] is 9 ng/mL; in [26], above 50 µg/mL.
4858_P08 (PGT-123) (antibody): the IC50 (µg/mL), pseudovirus neutralization in experiment [16] was above 50 µg/mL; in [18], above 50 µg/mL; in experiment [19] it was above 50 µg/mL; in experiment [20], 0.009 µg/mL; in [21], 11.1 µg/mL. Moreover, the IC50 (µg/mL) neutralization in experiment [17] was 0.011 µg/mL; in [22] it was 1 µg/mL; in experiment [23] it was above 50 µg/mL. In experiment [24], the IC50 was 0.051 µg/mL. Also, the figures for the Fold IC50 increase relative to wild-type in experiment [27], in experiment [28] and in experiment [29] were 1.3 fold, 0.4 fold and 1.2 fold, respectively. The IC50, pseudovirus neutralization is 8 ng/mL in experiment [25], above 50 µg/mL in experiment [26] and 4.7 ng/mL in [15]. Moreover, the IC50 (ug/ml), neutralizing activity in experiment [15] stood at 0.0047 µg/mL. The same substance came in with an IC80, pseudovirus neutralization in [15] of 0.0175 µg/mL. The same substance came in with an IC90 (pseudovirus neutralization) in experiment [15] of 0.0381 µg/mL. This substance had an IC95, pseudovirus neutralization in [15] of 0.0791 µg/mL.
In the case of 4877_D15 (PGT-122) (antibody), the IC50 (µg/mL), pseudovirus neutralization in experiment [16] is above 50 µg/mL; in experiment [18], above 50 µg/mL; in experiment [19], above 50 µg/mL; in experiment [20], 0.012 µg/mL; in [21], 11.7 µg/mL. For the same substance, the IC50 (µg/mL) neutralization is 0.032 µg/mL in [17], above 50 µg/mL in experiment [22] and 14 µg/mL in experiment [23]. Moreover, the IC50 in experiment [24] came out at 0.321 µg/mL. Further, the results for the IC50, pseudovirus neutralization in experiment [25] and in experiment [26] were 8 ng/mL and 5.66 µg/mL, respectively. Besides, the IC50 (ug/ml), neutralizing activity in experiment [15] turned out to be 0.0115 µg/mL.
Turning to 5123_A06 (PGT-125) (antibody), the IC50 (µg/mL), pseudovirus neutralization in experiment [16] was above 50 µg/mL; in [18], 0.371 µg/mL; in [19], above 50 µg/mL; in [20] it was above 50 µg/mL; in experiment [21] it was 0.015 µg/mL. Also, the IC50 (µg/mL) neutralization was 22.1 µg/mL in [17], above 50 µg/mL in experiment [22] and above 50 µg/mL in [23]. This substance also had an IC50 in experiment [24] above 50 µg/mL. For the same substance, the figures for the Fold IC50 increase relative to wild-type in experiment [27], in experiment [28] and in experiment [29] were 1 fold, 0.5 fold and 0.9 fold, respectively. In addition, the results for the IC50, pseudovirus neutralization in [25] and in experiment [26] were 7 ng/mL and above 50 µg/mL, respectively. This substance gave an IC50 (ug/ml), neutralizing activity in experiment [15] of 0.0382 µg/mL. This substance also returned a neutralization IC50 in experiment [15] of 0.0382 µg/mL. For the same substance, the neutralization IC80 in [15] is 0.144 µg/mL. Moreover, the neutralization IC90 in experiment [15] was 0.339 µg/mL. In [15], this substance yielded a neutralization IC95 of 0.892 µg/mL.
For 5141_B17 (PGT-126) (antibody), the IC50 (µg/mL), pseudovirus neutralization in [16] is above 50 µg/mL; in [18], above 50 µg/mL; in experiment [19] it was 0.792 µg/mL; in [20], 0.03 µg/mL; in experiment [21] it was 0.047 µg/mL. Moreover, the IC50 (µg/mL) neutralization in experiment [17] is 0.279 µg/mL; in [22], above 50 µg/mL; in experiment [23] it was above 50 µg/mL. The IC50 in experiment [24] is above 50 µg/mL. The Fold IC50 increase relative to wild-type amounted to 1.2 fold in experiment [27], 0.6 fold in experiment [28] and 1.3 fold in experiment [29]. In addition, the IC50, pseudovirus neutralization in experiment [25] is 10 ng/mL; in [26] it was above 50 µg/mL. Also, the IC50 (ug/ml), neutralizing activity in experiment [15] came to 0.0093 µg/mL.
On to 5145_B14 (PGT-127) (antibody), for which the IC50 (µg/mL), pseudovirus neutralization in experiment [16] is above 50 µg/mL; in experiment [18] it was above 50 µg/mL; in experiment [19], 6.02 µg/mL; in experiment [20] it was 0.393 µg/mL; in experiment [21], 0.056 µg/mL. Also, the IC50 (µg/mL) neutralization in experiment [17] is 19.2 µg/mL; in experiment [22], above 50 µg/mL; in experiment [23], above 50 µg/mL. Also, the IC50 in experiment [24] was above 50 µg/mL. In addition, the Fold IC50 increase relative to wild-type in [27] is 1.2 fold; in experiment [28], 1 fold; in [29], 2.5 fold. Further, the results for the IC50, pseudovirus neutralization in experiment [25] and in experiment [26] were 18 ng/mL and above 50 µg/mL, respectively.
On to PGT-121 (antibody), for which the IC50 (µg/mL), pseudovirus neutralization in [4] was above 50 µg/mL; in experiment [30], 0.031 µg/mL.
The matching figures for PGT-122 (antibody): above 50 µg/mL and 0.068 µg/mL.
With PGT-141 (4964_G22; 4993_K13) (antibody), in experiment [9], the neutralization IC50 was determined as 1.89 µg/mL.
The same measure, in the same setting: with PGT-142 (4995_E20) (antibody) the figure was 2.81 µg/mL.
The same measure, in the same setting: with PGT-143 (4980_N08) (antibody) the figure was 2.97 µg/mL.
Still for that read-out and setting: the same measure for PGT-144 (4970_K22) (antibody): above 50 µg/mL.
Turning to PGV04 (antibody), the IC50 (µg/mL), pseudovirus neutralization in experiment [4] was 1.29 µg/mL; in experiment [6], above 50 µg/mL; in [7], 3.56 µg/mL; in experiment [8] it was 0.194 µg/mL. Moreover, in [30], the IC50 stood at 0.145 µg/mL. Besides, in experiment [9], the neutralization IC50 turned out to be 0.043 µg/mL.
As to VRC01 (antibody), the IC50, pseudovirus neutralization in experiment [8] was 0.332 µg/mL; in experiment [24], 1.89 µg/mL. In addition, the neutralization IC50 amounted to 0.073 µg/mL in experiment [9], 0.06 µg/mL in [31], 0.186 µg/mL in [32] and 0.108 µg/mL in experiment [33].
